From patent US20150044251A1 (Novartis, published 2015)

B1: EsxAB hybrid polypeptide (other)
chain: MAMIKMSPEEIRAKSQSYGQGSDQIRQILSDLTRAQGEIAANWEGQAFSRFEEQFQQLSPKVEKFAQLLEEIKQQLNSTADAVQEQDQQLSNNFGLQASGGGSGGYKGIKADGGKVDQAKQLAAKTAKDIEACQKQTQQLAEYIEGSDWEGQFANKVKDVLLIMAKFQEELVQPMADHQKAIDNLSQNLAKYDTLSIKQGLDRVNP
notes: also called EsxAB monomer
B2: Sta006 (other)
chain: MASCGNQGEKNNKAETKSYKMDDGKTVDIPKDPKRIAVVAPTYAGGLKKLGANIVAVNQQVDQSKVLKDKFKGVTKIGDGDVEKVAKEKPDLIIVYSTDKDIKKYQKVAPTVVVDYNKHKYLEQQEMLGKIVGKEDKVKAWKKDWEETTAKDGKEIKKAIGQDATVSLFDEFDKKLYTYGDNWGRGGEVLYQAFGLKMQPEQQKLTAKAGWAEVKQEEIEKYAGDYIVSTSEGKPTPGYESTNMWKNLKATKEGHIVKVDAGTYWYNDPYTLDFMRKDLKEKLIKAAK
notes: Seen as monomer and dimer in the formulations

Assays:
[1] = target: the molecule itself; test: capillary electrophoresis (SDS-MW) of tetravalent formulation, pH 6, no EDTA, 25 C up to 72 h; self-association (disulfide-linked dimer)
Procedure: (§1) Capillary Electrophoresis analyses were performed with a Beckman Coulter PA800 instrument, SDS-MW application. The sample was prepared by mixing 90 μL of the pre-lyophilized formulation with 10 μL of TRIS-SDS buffer.

Sta006 = target: B2; test: capillary electrophoresis (SDS-MW) of tetravalent formulation, pH 6, no EDTA, 25 C up to 72 h; attributed to redox reactions
Procedure: as §1

[2] = target: the molecule itself; test: SEC-HPLC of tetravalent pre-lyophilized formulation; self-association (dimer peak)

Binder	binding result [1]	binding result (Sta006)	binding result [2]
B1	binds	binds	
B2			binds
